Results reported in patent US20220340666A1 (NEW YORK UNIVERSITY, published 2022).
Numbering of substitutions follows the chain as printed.

B1: G9.1-11 Fab (Fab, V domains shown)
VH: EVQLVESGGGLVQPGGSLRLSCAASGFTVYSSSIHWVRQAPGKGLEWVASIYSYYGYTSYADSVKGRFTISADTSKNTAYLQMNSLRAEDTAVYYCARSTEGYDRWGYYSSYWSSGLDYWGQGTLVTVSS
VL: DIQMTQSPSSLSASVGDRVTITCRASQSVSSAVAWYQQKPGKAPKLLIYSASSLYSGVPSRFSGSRSGTDFTLTISSLQPEDFATYYCQQTYWGLITFGQGTKVEIKR
notes: Avitag at the C-terminus of the heavy chain, biotinylated when required
B2: G9.1-4 Fab (Fab, V domains shown)
VH: EVQLVESGGGLVQPGGSLRLSCAASGFTIYYSSIHWVRQAPGKGLEWVASISSSSGSTSYADSVKGRFTISADTSKNTAYLQMNSLRAEDTAVYYCARSYRPYSSYYWGMDYWGQGTLVTVSS
VL: B1 VL with T91S, Y92S, W93S, G94S
B3: G9.1-2 Fab (Fab, V domains shown)
VH: EVQLVESGGGLVQPGGSLRLSCAASGFTISSSSIHWVRQAPGKGLEWVASISSYYGSTYYADSVKGRFTISADTSKNTAYLQMNSLRAEDTAVYYCARSWSSSFWYNWALDYWGQGTLVTVSS
VL: DIQMTQSPSSLSASVGDRVTITCRASQSVSSAVAWYQQKPGKAPKLLIYSASSLYSGVPSRFSGSRSGTDFTLTISSLQPEDFATYYCQQWQWGYSLVTFGQGTKVEIKR
B4: G9.1-9 Fab (Fab, V domains shown)
VH: EVQLVESGGGLVQPGGSLRLSCAASGFTVSSSSIHWVRQAPGKGLEWVAYIYSSSGYTSYADSVKGRFTISADTSKNTAYLQMNSLRAEDTAVYYCARYSSYHYPYWLFAMDYWGQGTLVTVSS
VL: B3 VL with W91S, Q92Y, W93F, G94H, Y95K, S96I, L97P, V98I
B5: G9.1-3 Fab (Fab, V domains shown)
VH: EVQLVESGGGLVQPGGSLRLSCAASGFTIYSSSIHWVRQAPGKGLEWVAYIYSSSGYTSYADSVKGRFTISADTSKNTAYLQMNSLRAEDTAVYYCARYSHSSLYYSWIWALDYWGQGTLVTVSS
VL: B3 VL with W91S, Q92W, W93Y, G94S, Y95N, S96K, L97P, V98I
B6: G9.1-5 Fab (Fab, V domains shown)
VH: EVQLVESGGGLVQPGGSLRLSCAASGFTIYYSSIHWVRQAPGKGLEWVASISSSYGSTYYADSVKGRFTISADTSKNTAYLQMNSLRAEDTAVYYCARSVSWYPYYYYYGYGSGLDYWGQGTLVTVSS
VL: B3 VL with W91Y, Q92Y, W93G, G94W, Y95F, S96Y, L97P
notes: as for B1
B7: G9.1-7 Fab (Fab, V domains shown)
VH: EVQLVESGGGLVQPGGSLRLSCAASGFTVSSSSIHWVRQAPGKGLEWVASISSYYGYTYYADSVKGRFTISADTSKNTAYLQMNSLRAEDTAVYYCARSYSYGYDYFVKYYTMDYWGQGTLVTVSS
VL: B3 VL with W91Y, Q92P, W93G, G94Y, Y95R, S96G, V98I
B8: G9.1-1 Fab (Fab, V domains shown)
VH: EVQLVESGGGLVQPGGSLRLSCAASGFTFSSSSIHWVRQAPGKGLEWVASIYSSYGYTYYADSVKGRFTISADTSKNTAYLQMNSLRAEDTAVYYCARYYWGWSQNQGFWWYGLDYWGQGTLVTVSS
VL: DIQMTQSPSSLSASVGDRVTITCRASQSVSSAVAWYQQKPGKAPKLLIYSASSLYSGVPSRFSGSRSGTDFTLTISSLQPEDFATYYCQQSWVGSLITFGQGTKVEIKR
B9: G9.1-10 Fab (Fab, V domains shown)
VH: EVQLVESGGGLVQPGGSLRLSCAASGFTVSYSSIHWVRQAPGKGLEWVASIYSYYGSTYYADSVKGRFTISADTSKNTAYLQMNSLRAEDTAVYYCARGHYQEGRKSGFSYWSPALDYWGQGTLVTVSS
VL: B8 VL with S91W, W92Y, V93W, G94Y, S95Y, L96P, I97V
B10: G9.1-8m13 Fab (Fab, V domains shown)
VH: EVQLVESGGGLVQPGGSLRLSCAASGFTVSSSSIHWVRQAPGKGLEWVAYIYPYSSSSSYADSVKGRFTISADTSKNTAYLQMNSLRAEDTAVYYCARYSTYSSKWVWGMDYWGQGTLVTVSS
VL: B3 VL with W91S, Q92Y, W93Y, G94D, Y95S, S96N, L97P, V98I
notes: Purified Fab; also called G9.1-8mut13
B11: G9.1-8m12 Fab (Fab, V domains shown)
VH: EVQLVESGGGLVQPGGSLRLSCAASGFTVSSSSIHWVRQAPGKGLEWVAYIYPYSSSSSYADSVKGRFTISADTSKNTAYLQMNSLRAEDTAVYYCARYSTYSSSKWVWGMDYWGQGTLVTVSS
VL: B3 VL with W91S, Q92Y, W93Y, G94D, Y95S, S96N, L97P, V98I
notes: Purified Fab; also called G9.1-8mut12
B12: G9.1-8m14 Fab (Fab, V domains shown)
VH: EVQLVESGGGLVQPGGSLRLSCAASGFTVSSSSIHWVRQAPGKGLEWVAYIYPYSSSSSYADSVKGRFTISADTSKNTAYLQMNSLRAEDTAVYYCARYSTYKWVWGMDYWGQGTLVTVSS
VL: B3 VL with W91S, Q92Y, W93Y, G94D, Y95S, S96N, L97P, V98I
notes: Purified Fab; also called G9.1-8mut14
B13: G9.1-8m11 Fab (Fab, V domains shown)
VH: B12 VH with S56G, S57Y, S58T
VL: B3 VL with W91S, Q92Y, W93Y, G94D, Y95S, S96N, L97P, V98I
notes: Purified Fab; also called G9.1-8mut11
B14: G9.1-8m11 mIgG2a (antibody, V domains shown)
VH: B12 VH with S56G, S57Y, S58T
VL: B3 VL with W91S, Q92Y, W93Y, G94D, Y95S, S96N, L97P, V98I
notes: also called G9.1-8mut11
B15: G9.1-8m9 mIgG2a (antibody, V domains shown)
VH: B10 VH with S56G, S57Y, S58T
VL: B3 VL with W91S, Q92Y, W93Y, G94D, Y95S, S96N, L97P, V98I
notes: also called G9.1-8mut9
B16: G9.1-8m6 Fab (Fab, V domains shown)
VH: EVQLVESGGGLVQPGGSLRLSCAASGFTVSSSSIHWVRQAPGKGLEWVAYIYPYSGYTSYADSVKGRFTISADTSKNTAYLQMNSLRAEDTAVYYCARYSTYSSSSSKWVWGMDYWGQGTLVTVSS
VL: B3 VL with W91S, Q92Y, W93Y, G94D, Y95S, S96N, L97P, V98I
notes: Purified Fab; also called G9.1-8mut6
B17: G9.1-8m7 Fab (Fab, V domains shown)
VH: EVQLVESGGGLVQPGGSLRLSCAASGFTVSSSSIHWVRQAPGKGLEWVAYIYPYSGYTSYADSVKGRFTISADTSKNTAYLQMNSLRAEDTAVYYCARYSTYSSSSKWVWGMDYWGQGTLVTVSS
VL: B3 VL with W91S, Q92Y, W93Y, G94D, Y95S, S96N, L97P, V98I
notes: Purified Fab; also called G9.1-8mut7
B18: G9.1-8m8 mIgG2a (antibody, V domains shown)
VH: B11 VH with S56G, S57Y, S58T
VL: B3 VL with W91S, Q92Y, W93Y, G94D, Y95S, S96N, L97P, V98I
notes: also called G9.1-8mut8
B19: G9.1-8m8 Fab (Fab, V domains shown)
VH: B11 VH with S56G, S57Y, S58T
VL: B3 VL with W91S, Q92Y, W93Y, G94D, Y95S, S96N, L97P, V98I
notes: Purified Fab; also called G9.1-8mut8
B20: G9.1-8m9 Fab (Fab, V domains shown)
VH: B10 VH with S56G, S57Y, S58T
VL: B3 VL with W91S, Q92Y, W93Y, G94D, Y95S, S96N, L97P, V98I
notes: Purified Fab; also called G9.1-8mut9
B21: G9.1-8m10 Fab (Fab, V domains shown)
VH: EVQLVESGGGLVQPGGSLRLSCAASGFTVSSSSIHWVRQAPGKGLEWVAYIYPYSGYTSYADSVKGRFTISADTSKNTAYLQMNSLRAEDTAVYYCARYSTYSKWVWGMDYWGQGTLVTVSS
VL: B3 VL with W91S, Q92Y, W93Y, G94D, Y95S, S96N, L97P, V98I
notes: Purified Fab; also called G9.1-8mut10
B22: G9.1-8m5 mIgG1 (antibody, V domains shown)
VH: EVQLVESGGGLVQPGGSLRLSCAASGFTVSSSSIHWVRQAPGKGLEWVAYIYPYSGYTSYADSVKGRFTISADTSKNTAYLQMNSLRAEDTAVYYCARYSTYSWGGIGSSSSSMDYWGQGTLVTVSS
VL: B3 VL with W91S, Q92Y, W93Y, G94D, Y95S, S96N, L97P, V98I
notes: Human/mouse hybrid IgG: CH1 and CL human, Fc mouse IgG1; also called G9.1-8mut5
B23: G9.1-8m1 mIgG1 (antibody, V domains shown)
VH: B22 VH with Y50S, I51S, Y52S, P53S, Y54S, S109K, S110W, S111V, S112W, S113G
VL: B3 VL with W91S, Q92Y, W93Y, G94D, Y95S, S96N, L97P, V98I
notes: Human/mouse hybrid IgG: CH1 and CL human, Fc mouse IgG1; also called G9.1-8mut1
B24: G9.1-8m2 mIgG1 (antibody, V domains shown)
VH: B22 VH with G56S, Y57S, T58S, S109K, S110W, S111V, S112W, S113G
VL: B3 VL with W91S, Q92Y, W93Y, G94D, Y95S, S96N, L97P, V98I
notes: Human/mouse hybrid IgG: CH1 and CL human, Fc mouse IgG1; also called G9.1-8mut2
B25: G9.1-8m4 mIgG1 (antibody, V domains shown)
VH: B22 VH with W104S, G105S, G106S, I107S, G108S, S109K, S110W, S111V, S112W, S113G
VL: B3 VL with W91S, Q92Y, W93Y, G94D, Y95S, S96N, L97P, V98I
notes: Human/mouse hybrid IgG: CH1 and CL human, Fc mouse IgG1; also called G9.1-8mut4
B26: G9.1-8m3 mIgG1 (antibody, V domains shown)
VH: B22 VH with Y99S, T101S, Y102S, S109K, S110W, S111V, S112W, S113G
VL: B3 VL with W91S, Q92Y, W93Y, G94D, Y95S, S96N, L97P, V98I
notes: Human/mouse hybrid IgG: CH1 and CL human, Fc mouse IgG1; also called G9.1-8mut3

These binders were tested against T1, human Galectin-9 CRD1 (residues 1-148), biotinylated (human, UniProt O00182 1-148, biotinylated in vitro with BirA (Avitag)) (assay: phage ELISA, phage-displayed Fab on biotinylated CRD).
T1 construct: Made as GST fusion, GST cleaved off with thrombin, gel filtered, biotinylated; not shown: Avitag upstream of the cloned gene (pGEX vector), left after thrombin cleavage from GST
T1 sequence (O00182 1-148): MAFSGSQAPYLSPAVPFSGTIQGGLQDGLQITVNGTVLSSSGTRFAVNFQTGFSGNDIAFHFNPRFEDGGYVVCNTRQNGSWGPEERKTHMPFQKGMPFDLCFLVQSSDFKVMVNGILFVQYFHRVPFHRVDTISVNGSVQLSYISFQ

Row | binding result | Binder
1 | binds | B1
2 | binds | B2
3 | binds | B3
4 | binds | B4
5 | binds | B5
6 | binds | B6
7 | binds | B7
8 | binds | B8
9 | binds | B9

Each binder was assayed against T1, human Galectin-9 CRD1 (residues 1-148), … (assay: bead-based binding assay, flow cytometry).
Procedure: (§1) The affinities of the antibodies were assessed using a bead-based assay as previously described (Nishikori et al., J Mol Biol, 2012, 424, 391-399) and surface plasmon resonance (SPR). In the bead-based assay, a biotinylated protein (either a Galectin-9 sample or a Fab sample) was immobilized on streptavidin-coated Dynabeads M280 via the biotin-streptavidin interaction. After blocking the excess biotin-binding sites on the beads using unconjugated biotin, binding titration was performed by incubating the second component (i.e., Fab for immobilized Galectin-9 or vice versa), followed by quantification using a dye-labeled neutravidin (ThermoFisher) and flow cytometry analysis. In experiments where the second component is an IgG, a dye-labeled anti-human IgG or anti-mouse IgG antibody was used for detection.

Row | Kd | Binder
10 | 20.7 nM | B10
11 | 2.48 nM | B11
12 | 58.5 nM | B12

Target: T1, human Galectin-9 CRD1 (residues 1-148), …
Experiment: bead-based binding assay, flow cytometry
Remark: another data set of the same source
Procedure: as §1

Row | Kd | binding result | Binder
13 | 52.7 nM | – | B13
14 | 1.46 nM | – | B14
15 | 0.71 nM | – | B15
16 | 0.52 nM | – | B16
17 | 0.93 nM | – | B17
18 | 0.51 nM | – | B18
19 | 0.56 nM | – | B19
20 | 1.57 nM | – | B20
21 | 58.4 nM | – | B21
22 | – | no binding | B22
23 | – | no binding | B23
24 | 6.51 nM | – | B24
25 | 12 nM | – | B25
26 | – | no binding | B26
